A word on the EC50: it is the concentration giving half of the maximal effect. Low values mean an effect from little substance, high ones a need for much substance. In general, Kd refers to the free concentration of one partner at which half of the binding sites on the other are occupied at equilibrium, for simple one-to-one binding. As a reminder, the EC50 (read off the curve) is the midpoint of the concentration-response curve.

Here are results for six molecules from patent publication US20200270347A1 (Hoffmann-La Roche, published 2020).

Residue numbers refer to the chain shown, from its start. Numbers in names are those of the source.

Assay [1] has as its target T1, wild-type EGFR on MKN-45 cells (human, UniProt P00533 25-1210).
T1 construct: MKN-45 is the wild-type EGFR line used to exclude crossreactivity; also called EGFRwt
Kind of assay: flow cytometry on MKN-45 cells (wild-type EGFR). (In flow cytometry, cells or beads pass a laser one at a time.)

Assay [2] has as its target T2, EGFRvIII expressed on the cell surface (CHO-EGFRvIII, DK-MG, U87MG-EGFRvIII cells) (human, UniProt P00533 298-1210).
T2 construct: The cell line of each result is named under assay; Species is stated for the U87 transfectant (human EGFRvIII protein) and the entry; also called EGFRvIII positive cells
Kind of assay: flow cytometry on CHO-EGFRvIII cells, IgG.

Assay [3] concerns the target T3, EGFRvIII-ECD avi his (human).
T3 construct: Extracellular domain of human EGFRvIII fused to an Avi-tag and a His-tag at the C-terminus; the entry is the whole construct; also called recombinant EGFRvIII; EGFRvIII antigen
Kind of assay: SPR, PGLALA IgG captured with anti-PGLALA antibody, EGFRvIII-ECD avi his as analyte, 1:1 Langmuir, 25° C. For orientation: SPR reads the build-up and loss of mass on a sensor chip optically.

For assay [4], the target named is EGFRwt ECD antigen (His-tagged, captured with anti-His) (human, UniProt P00533 25-645). Description: SPR, ECD antigen captured with anti-His, single injection of antibody at 500 nM.
The target in assay [5] is T3, EGFRvIII-ECD avi his. The description is as above.
Assay [6] concerns the target T2, EGFRvIII expressed on the cell surface …. Description: flow cytometry on U87MG-EGFRvIII cells, IgG PGLALA.
Assay [7] shares this target. Description: flow cytometry on CHO-EGFRvIII cells, TCB.
Assay [8] has as its target T1, wild-type EGFR on MKN-45 cells. Kind of assay: flow cytometry on MKN-45 cells (wild-type EGFR), IgG PGLALA.
The target in assay [9] is Mouse TYRP1 ECD-Fc(knob)-Avi / Fc(hole) (mouse, UniProt P01857 104-328 = IgG part). Description: SPR, TYRP1 ECD-Fc captured with anti-PGLALA antibody, Fab as analyte, 1:1 Langmuir; mouse TYRP1.
Assay [10] has as its target T4, Human TYRP1 ECD-Fc(knob)-Avi / Fc(hole) (human, UniProt P01857 104-328 = IgG part).
T4 construct: Fc with knob-into-hole and PG LALA modifications, C-terminal Avi-tag; also called monomeric fusion of the human TYRP1 extracellular domain to a human Fc-domain
Kind of assay: SPR, TYRP1 ECD-Fc captured with anti-PGLALA antibody, Fab as analyte, 1:1 Langmuir; human TYRP1.

For assay [11], the target named is Cynomolgus TYRP1 ECD-Fc(knob)-Avi / Fc(hole) (cynomolgus, UniProt P01857 104-328 = IgG part). Kind of assay: SPR, TYRP1 ECD-Fc captured with anti-PGLALA antibody, Fab as analyte, 1:1 Langmuir; cynomolgus TYRP1.
The target in assay [12] is TYRP1 on the melanoma cell line M150543 (human, UniProt P17643 25-537). Description: cell-based or functional assay.
The target in assay [13] is T5, heterodimer of cynomolgus CD3 delta and CD3 epsilon ectodomains fused to a human Fc domain with … (cynomolgus).
T5 construct: Each entry is the whole fusion chain; also called Cynomolgus CD3 epsilon stalk-Fc(knob)-Avi / Cynomolgus CD3 delta stalk-Fc(hole)-Avi
Kind of assay: SPR, TCB captured with anti-PGLALA antibody, CD3 antigen as analyte, 1:1 Langmuir.

In assay [14] the target is T6, heterodimer of human CD3 delta and CD3 epsilon ectodomains fused to a human Fc domain with knob-into-hole … (human).
T6 construct: Each entry is the whole fusion chain (ectodomain, stalk, Fc, Avi-tag); also called recombinant CD3; recombinant human CD3
Described as above.

Assay [15] deals with T7, recombinant TYRP1 (Sino Biologicals) (human, UniProt P17643 25-477, limits assumed).
T7 construct: Bought protein; also called human TYRP1
Kind of assay: SPR, relative active concentration as for CD3, with recombinant TYRP1 (Sino Biologicals) as antigen; sample: 14d pH 6.0, 40°C.

Assay [16] addresses T6, heterodimer of human CD3 delta and CD3 …. Description: SPR, relative active concentration after stress.
In assay [17] the target is T7, recombinant TYRP1 (Sino Biologicals). Kind of assay: SPR, relative active concentration as for CD3, with recombinant TYRP1 (Sino Biologicals) as antigen; sample: unstressed.
Assay [18] shares this target. Description: SPR, relative active concentration as for CD3, with recombinant TYRP1 (Sino Biologicals) as antigen; sample: 14d pH 7.4, 37°C.

B1: EGFRvIII antibody P056.021 IgG1 PGLALA (antibody, V domains shown)
VH: EVQLVQSGAEVKKPGESLKISCKGSGYSFDSYWIAWVRQMPGKGLEWMGVIHPYDSDTRYSPSFQGQVTISADKSISTAYLQWSSLKASDTAMYYCARVSRSSYAFDYWGQGTLVTVSS
VL: not shown
notes: Human IgG1 with P329G L234A L235A; also called P056.021 (parental)
For B1, in assay [1], the binding result is “no binding (tested: about 140 nM)”. The response in [2] was half-maximal at 16.5 nM (EC50). This molecule also yielded a Kd with EGFRvIII-ECD avi his [3] of 35 nM. Moreover, the values for the response units (in assay [4]; in the assay with EGFRvIII-ECD avi his [5]) were below 5 RU and above 50 RU, respectively. Also, the concentration giving a half-maximal response (EC50 (read off the curve)) in assay [6] is around 4 nM.

B2: EGFRvIII TCB P056.021 (CD3orig) (bispecific antibody, V domains shown)
VH 1: B1 VH
VL 1: not shown
VH 2: not shown
VL 2: QAVVTQEPSLTVSPGGTVTLTCGSSTGAVTTSNYANWVQEKPGQAFRGLIGGTNKRAPGTPARFSGSLLGGKAALTLSGAQPEDEAEYYCALWYSNLWVFGGGTKLTVL
notes: also called parental EGFRvIII TCB P056.021; P056.021 EGFRvIII TCB with CD3orig
B2: it took 13 nM to reach a half-maximal effect in assay [7] (EC50). For the same molecule, the binding result in assay [1] is reported as “no binding (tested: about 140 nM)”.

B3: EGFRvIII antibody P063.056 IgG1 PGLALA (antibody, V domains shown)
VH: B1 VH
VL: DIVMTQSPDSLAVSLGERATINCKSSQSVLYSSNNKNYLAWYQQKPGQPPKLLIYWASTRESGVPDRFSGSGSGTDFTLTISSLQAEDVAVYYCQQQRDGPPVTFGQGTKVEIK
notes: Anti-EGFRvIII PGLALA IgG (human IgG1)
Molecule B3 registered a Kd with EGFRvIII-ECD avi his [3] of 10 nM. In addition, the response units in [4] was below 5 RU; in the assay with EGFRvIII-ECD avi his [5], above 50 RU. In addition, in assay [8], the binding result is “no binding (tested: about 140 nM)”.

B4: TYRP1 Fab fragment (humanized TA99 TYRP1 binder) (Fab, V domains shown)
VH: QVQLVQSGAEVKKPGASVKVSCKASGFNIKDYFLHWVRQAPGQGLEWMGWINPDNGNTVYAQKFQGRVTMTADTSTSTVYMELSSLRSEDTAVYYCTRRDYTYEKAALDYWGQGTLVTVSS
VL: DIQMTQSPSSLSASVGDRVTITCRASGNIYNYLAWYQQKPGKVPKLLIYDAKTLADGVPSRFSGSGSGTDFTLTISSLQPEDVATYYCQHFWSLPFTFGQGTKLEIK
notes: Fab prepared by plasmin digestion of the corresponding antibody; also called TYRP1 Fab fragments
Turning to B4, the Kd in [9] came to 0.53 nM; in assay [10] it was 0.13 nM; in [11], 0.18 nM.

B5: TYRP1 TCB CD3opt (bispecific antibody, human IgG1, kappa, L234A L235A)
heavy 1: not shown
heavy 2: QVQLVQSGAEVKKPGASVKVSCKASGFNIKDYFLHWVRQAPGQGLEWMGWINPDNGNTVYAQKFQGRVTMTADTSTSTVYMELSSLRSEDTAVYYCTRRDYTYEKAALDYWGQGTLVTVSSASTKGPSVFPLAPSSKSTSGGTAALGCLVEDYFPEPVTVSWNSGALTSGVHTFPAVLQSSGLYSLSSVVTVPSSSLGTQTYICNVNHKPSNTKVDEKVEPKSCDKTHTCPPCPAPEAAGGPSVFLFPPKPKDTLMISRTPEVTCVVVDVSHEDPEVKFNWYVDGVEVHNAKTKPREEQYNSTYRVVSVLTVLHQDWLNGKEYKCKVSNKALGAPIEKTISKAKGQPREPQVCTLPPSRDELTKNQVSLSCAVKGFYPSDIAVEWESNGQPENNYKTTPPVLDSDGSFFLVSKLTVDKSRWQQGNVFSCSVMHEALHNHYTQKSLSLSP
light 1: DIQMTQSPSSLSASVGDRVTITCRASGNIYNYLAWYQQKPGKVPKLLIYDAKTLADGVPSRFSGSGSGTDFTLTISSLQPEDVATYYCQHFWSLPFTFGQGTKLEIKRTVAAPSVFIFPPSDRKLKSGTASVVCLLNNFYPREAKVQWKVDNALQSGNSQESVTEQDSKDSTYSLSSTLTLSKADYEKHKVYACEVTHQGLSSPVTKSFNRGEC
light 2: EVQLLESGGGLVQPGGSLRLSCAASGFQFSSYAMNWVRQAPGKGLEWVSRIRSKYNNYATYYADSVKGRFTISRDDSKNTLYLQMNSLRAEDTAVYYCVRHTTFPSSYVSYYGYWGQGTLVTVSSASVAAPSVFIFPPSDEQLKSGTASVVCLLNNFYPREAKVQWKVDNALQSGNSQESVTEQDSKDSTYSLSSTLTLSKADYEKHKVYACEVTHQGLSSPVTKSFNRGEC
notes: two TYRP1 Fabs, one CD3opt crossover Fab
For the molecule B5, in assay [12], the “EC50 of tumor cell killing at 48 h (LDH release), PBMC donor 1” value came out at 0.31 nM. Besides, the “EC50 of tumor cell killing at 48 h (LDH release), PBMC donor 2” value in assay [12] is 0.03 nM. For the same molecule, the “EC50 of tumor cell killing at 48 h (LDH release), PBMC donor 3” value in assay [12] turned out to be 0.08 nM. In addition, the Kd in assay [13] turned out to be 20 nM; in assay [14], 50 nM. In addition, the “Tyrp1 Binding Activity (%)” value was found to be 101% in assay [15], 100% in [17] and 101% in [18]. Besides, in assay [16], the “binding activity to CD3 after 2 weeks at pH 7.4, 37° C., relative to 2 weeks at pH 6, -80° C.” value is above 90%.

B6: TYRP1 TCB CD3orig (bispecific antibody, human IgG1, kappa, L234A L235A)
heavy 1: not shown
heavy 2: B5 heavy 2
light 1: B5 light 1
light 2: B5 light 2 with Q28T, S31T, T102G, T103N, P105G, S106N, Y111W, Y112F, G113A
notes: 2+1 IgG CrossFab, inverted, with charge modifications
In the case of B6, in [12], the “EC50 of tumor cell killing at 48 h (LDH release), PBMC donor 1” value amounted to 0.44 nM; the “EC50 of tumor cell killing at 48 h (LDH release), PBMC donor 2” value is 0.05 nM; the “EC50 of tumor cell killing at 48 h (LDH release), PBMC donor 3” value turned out to be 0.14 nM. For the same molecule, in assay [14], the equilibrium dissociation constant (Kd) was found to be 50 nM. Also, the “Tyrp1 Binding Activity (%)” value in assay [15] worked out at 98%. Besides, the “Tyrp1 Binding Activity (%)” value in [17] amounted to 100%. In addition, the “Tyrp1 Binding Activity (%)” value in [18] was 103%.
